The term IC50 denotes the concentration that gives 50% inhibition. A low value points to greater potency.

The source of these data is patent US20230357447A1 (JANUX THERAPEUTICS, published 2023).

Ends that are not written are not given here.

Assay [1] deals with T1, Anti-CD28 scFv (VH-linker 1-VL) (biotinylated (site not stated)).
T1 construct: biotinylated and captured on neutravidin coated plates in the phage ELISA
Nature of the assay: phage ELISA, captured biotinylated scFv; background signal 0.078. A general note: ELISA stands for enzyme-linked immunosorbent assay.

The target in assay [2] is T1, Anti-CD28 scFv (VH-linker 1-VL). Briefly: phage ELISA, scFv wells pre-incubated with soluble CD28 (competitor); background signal 0.078.
For assay [3] the target is unchanged. Briefly: phage ELISA, scFv wells pre-incubated with soluble CD28 (competitor); background signal 0.065.
Assay [4] shares this target. Nature of the assay: phage ELISA, captured biotinylated scFv; background signal 0.065.
For assay [5] the target is unchanged. Briefly: phage ELISA, scFv wells pre-incubated with soluble CD28 (competitor); background signal 0.073.
Assay [6] has the same target. Nature of the assay: phage ELISA, captured biotinylated scFv; background signal 0.073.
Assay [7] shares this target. Briefly: phage ELISA, captured biotinylated scFv; background signal 0.072.
For assay [8] the target is unchanged. Nature of the assay: phage ELISA, scFv wells pre-incubated with soluble CD28 (competitor); background signal 0.072.
Assay [9] shares this target. Briefly: phage ELISA, captured biotinylated scFv; background signal 0.071.
For assay [10] the target is unchanged. Briefly: phage ELISA, scFv wells pre-incubated with soluble CD28 (competitor); background signal 0.071.
For assay [11] the target is unchanged. Briefly: phage ELISA, captured biotinylated scFv; background signal 0.079.
The target is the same in assay [12]. Nature of the assay: phage ELISA, scFv wells pre-incubated with soluble CD28 (competitor); background signal 0.079.
For assay [13] the target is unchanged. Briefly: phage ELISA, scFv wells pre-incubated with soluble CD28 (competitor); background signal 0.063.
For assay [14] the target is unchanged. Briefly: phage ELISA, captured biotinylated scFv; background signal 0.066.
The target is the same in assay [15]. Nature of the assay: phage ELISA, scFv wells pre-incubated with soluble CD28 (competitor); background signal 0.066.
The target of assay [16] is T2, Ab-12, anti-PD-L1xCD28 non-masked antibody in Vh format.
T2 construct: also called PDL1xCD28 non-masked (Vh)
Nature of the assay: competition ELISA: peptide titrated against 5 nM Ab-12; binding of Ab-12 to captured biotinylated CD28 antigen is read.

B1: Phage-88 (peptide)
peptide: MDWCPIHLWHYCFN
As for B1, the “Phage binding ELISA CD28 scFv signal” value in assay [1] came to 2.6. The “Phage binding ELISA CD28 scFv signal in presence of CD28” value in assay [2] amounted to 0.453.

B2: Phage-70 (peptide)
peptide: ITWCPSSMWNRCFI
Take B2: the “Phage binding ELISA CD28 scFv signal in presence of CD28” value in assay [3] is 0.11. The “Phage binding ELISA CD28 scFv signal” value in assay [4] was found to be 0.379.

B3: Phage-89 (peptide)
peptide: MDWCPRALWNVCFN
With B3, the “Phage binding ELISA CD28 scFv signal in presence of CD28” value in assay [3] was 0.472. Besides, the “Phage binding ELISA CD28 scFv signal” value in assay [4] was found to be 2.6.

B4: Phage-22 (peptide)
peptide: MNWCPKDIWYLCFN
Take B4: the “Phage binding ELISA CD28 scFv signal in presence of CD28” value in [5] was 0.168. In [6], the “Phage binding ELISA CD28 scFv signal” value was 2.62.

B5: Phage-75 (peptide)
peptide: MDWCPRSHWHVCYN
With B5, the “Phage binding ELISA CD28 scFv signal” value in assay [7] was 1.95. Moreover, the “Phage binding ELISA CD28 scFv signal in presence of CD28” value in [8] amounted to 0.281.

B6: Phage-53 (peptide)
peptide: MDWCPMHLWNKCFN
Take B6: the “Phage binding ELISA CD28 scFv signal” value in assay [9] turned out to be 1.04. Moreover, the “Phage binding ELISA CD28 scFv signal in presence of CD28” value in assay [10] amounted to 0.122.

B7: Phage-61 (peptide)
peptide: MVSCPTTMWNRCFN
Consider B7, for which the “Phage binding ELISA CD28 scFv signal” value in assay [11] came out at 1.33. The “Phage binding ELISA CD28 scFv signal in presence of CD28” value in assay [12] came to 0.072.

B8: Phage-25 (peptide)
peptide: MDWCPRDLWDLCFA
Consider B8, for which the “Phage binding ELISA CD28 scFv signal” value in [1] was determined as 2.7. Moreover, the “Phage binding ELISA CD28 scFv signal in presence of CD28” value in assay [2] was 0.219.

B9: Phage-56 (second entry so labelled, SEQ ID NO: 255) (peptide)
peptide: MDWCPRYLWNECFY
notes: label printed as Phage-56 between Phage-65 and Phage-67, probably Phage-66
Consider B9, for which the “Phage binding ELISA CD28 scFv signal” value in [11] is 2.54. The “Phage binding ELISA CD28 scFv signal in presence of CD28” value in assay [12] turned out to be 0.358.

B10: Phage-102 (peptide)
peptide: MDWCPRYLWAECFY
With B10, the “Phage binding ELISA CD28 scFv signal in presence of CD28” value in assay [13] turned out to be 0.354.

B11: Phage-37 (peptide)
peptide: MHWCPVDLWYLCYN
Consider B11, for which, in assay [11], the “Phage binding ELISA CD28 scFv signal” value amounted to 2.66. Further, the “Phage binding ELISA CD28 scFv signal in presence of CD28” value in assay [12] came to 0.417.

B12: Phage-24 (peptide)
peptide: MDWCPLYLWNECFN
In the case of B12, the “Phage binding ELISA CD28 scFv signal in presence of CD28” value in [3] worked out at 0.247. Also, in [4], the “Phage binding ELISA CD28 scFv signal” value worked out at 2.61.

B13: Phage-80 (peptide)
peptide: MDWCPMYLWNECFS
B13: the “Phage binding ELISA CD28 scFv signal in presence of CD28” value in assay [10] was determined as 0.411.

B14: Phage-116 (peptide)
peptide: MDWCPRDLWYACFA
As for B14, in [7], the “Phage binding ELISA CD28 scFv signal” value worked out at 2.47. Further, the “Phage binding ELISA CD28 scFv signal in presence of CD28” value in [8] came out at 0.242.

B15: Phage-38 (peptide)
peptide: MDWCPVHLWSVCFA
As for B15, in [7], the “Phage binding ELISA CD28 scFv signal” value was 2.65. Moreover, the “Phage binding ELISA CD28 scFv signal in presence of CD28” value in assay [8] stood at 0.302.

B16: Phage-97 (peptide)
peptide: MDWCPKDLWDYCFA
B16: the “Phage binding ELISA CD28 scFv signal” value in assay [1] was found to be 2.57. For the same molecule, the “Phage binding ELISA CD28 scFv signal in presence of CD28” value in [2] amounted to 0.165.

B17: Phage-19 (peptide)
peptide: MDWCPIDLWNECFF
For the molecule B17, the “Phage binding ELISA CD28 scFv signal” value in assay [14] worked out at 2.52. In addition, the “Phage binding ELISA CD28 scFv signal in presence of CD28” value in assay [15] came out at 0.187.

B18: Phage-57 (peptide)
peptide: MDWCPRHRWVDCFY
With B18, in assay [5], the “Phage binding ELISA CD28 scFv signal in presence of CD28” value worked out at 0.11. Also, the “Phage binding ELISA CD28 scFv signal” value in assay [6] stood at 0.478.

B19: Phage-51 (peptide)
peptide: MDWCPMDLWDYCFN
Take B19: in assay [9], the “Phage binding ELISA CD28 scFv signal” value worked out at 1.64. Besides, the “Phage binding ELISA CD28 scFv signal in presence of CD28” value in assay [10] was 0.107.

B20: Peptide-49 (peptide)
peptide: MHWCPVDLWYLCYN
modifications: cysteine pairing not given here; also: biotinylated, site not given here
notes: Synthetic biotinylated peptide loaded on streptavidin biosensors
Turning to B20, the IC50 in [16] is 170 nM.

B21: Phage-69 (peptide)
peptide: MDWCPIHMWADCFA
In the case of B21, the “Phage binding ELISA CD28 scFv signal in presence of CD28” value in assay [3] is 0.143. For the same molecule, the “Phage binding ELISA CD28 scFv signal” value in [4] was found to be 2.46.

B22: Phage-42 (peptide)
peptide: MDWCPRHLWVHCFN
In the case of B22, the “Phage binding ELISA CD28 scFv signal” value in assay [9] worked out at 2.5. Also, in [10], the “Phage binding ELISA CD28 scFv signal in presence of CD28” value was 0.254.

B23: Phage-59 (peptide)
peptide: MDWCPRDSWHLCFA
Turning to B23, the “Phage binding ELISA CD28 scFv signal in presence of CD28” value in assay [5] came out at 0.147. Moreover, the “Phage binding ELISA CD28 scFv signal” value in assay [6] was 2.45.

B24: Phage-94 (peptide)
peptide: MDWCPRDLWSLCFY
As to B24, in assay [3], the “Phage binding ELISA CD28 scFv signal in presence of CD28” value stood at 0.246. Also, the “Phage binding ELISA CD28 scFv signal” value in [4] came out at 2.57.

B25: Phage-39 (peptide)
peptide: MDWCPMHLWHQCFN
For the molecule B25, the “Phage binding ELISA CD28 scFv signal in presence of CD28” value in [5] was 0.299. The “Phage binding ELISA CD28 scFv signal” value in [6] is 2.56.

B26: Peptide-50 (peptide)
peptide: MDWCPVHLWSVCFA
modifications: cysteine pairing not given here; also: biotinylated, site not given here
notes: as for B20
Turning to B26, in assay [16], the IC50 came out at 2340 nM. This lies in the single-digit micromolar range.

B27: Phage-33 (peptide)
peptide: MDWCPRFMWDECFN
B27: the “Phage binding ELISA CD28 scFv signal” value in [11] amounted to 2.68. In addition, the “Phage binding ELISA CD28 scFv signal in presence of CD28” value in assay [12] was 0.256.

B28: Phage-79 (peptide)
peptide: MDWCPRDLWHECFS
As for B28, in assay [14], the “Phage binding ELISA CD28 scFv signal” value was 2.65. Moreover, the “Phage binding ELISA CD28 scFv signal in presence of CD28” value in [15] worked out at 0.382.

B29: Phage-36 (peptide)
peptide: MDWCPRYLWHVCFA
In the case of B29, the “Phage binding ELISA CD28 scFv signal” value in assay [7] was found to be 2.48. Moreover, the “Phage binding ELISA CD28 scFv signal in presence of CD28” value in [8] was 0.226.

B30: Phage-45 (peptide)
peptide: MDWCPRPLWHECFS
B30: in assay [1], the “Phage binding ELISA CD28 scFv signal” value turned out to be 2.35. In addition, the “Phage binding ELISA CD28 scFv signal in presence of CD28” value in assay [2] stood at 0.121.

B31: Phage-114 (peptide)
peptide: MDWCPRYLWFECFA
For the molecule B31, in assay [14], the “Phage binding ELISA CD28 scFv signal” value is 2.5. In addition, the “Phage binding ELISA CD28 scFv signal in presence of CD28” value in assay [15] worked out at 0.21.

B32: Phage-73 (peptide)
peptide: MDWCPRALWHECFN
B32: in [9], the “Phage binding ELISA CD28 scFv signal” value amounted to 2.69. Also, the “Phage binding ELISA CD28 scFv signal in presence of CD28” value in assay [10] was 0.401.

B33: Phage-83 (peptide)
peptide: MDWCPRFLWDECFN
On to B33, for which the “Phage binding ELISA CD28 scFv signal in presence of CD28” value in [3] turned out to be 0.483. For the same molecule, the “Phage binding ELISA CD28 scFv signal” value in [4] was determined as 2.63.

B34: Phage-71 (peptide)
peptide: MDWCPRYLWHECFA
Consider B34, for which, in assay [9], the “Phage binding ELISA CD28 scFv signal” value came to 2.63. Moreover, the “Phage binding ELISA CD28 scFv signal in presence of CD28” value in assay [10] came to 0.429.

B35: Phage-86 (peptide)
peptide: MDWCPRHLWAECFF
As to B35, in assay [14], the “Phage binding ELISA CD28 scFv signal” value was found to be 2.61. For the same molecule, the “Phage binding ELISA CD28 scFv signal in presence of CD28” value in assay [15] is 0.292.

B36: Phage-62 (peptide)
peptide: MDWCPSYLWNECFF
B36: the “Phage binding ELISA CD28 scFv signal in presence of CD28” value in assay [3] was 0.133. In [4], the “Phage binding ELISA CD28 scFv signal” value is 2.
